Results: US20260234222A1 (LEYDEN LABORATORIES B V, published 2026)
Where two headings read alike, the source gives them in different places.

B1: Parental mAb 2 (antibody, V domains shown)
VH: QMQLMQSGAEVKKPGASVTVSCKASGDTFSDYRIHWVRQAPGQGLEWMGRMNPKSGDTNFAQKFQGRVTMTRDMSINTAYMTLSGLTFDDTALYYCASLLIVGGFDPLDDFEVWGQGTMVTISS
VL: QSALTQPPSASGSPGQSVTISCSGTSSDVGGYNFVSWYQHHPGKAPKILIYEVTKRPSGVPDRFSGSKSGNTASLTVSGLQAEDEADYYCSSYGGTNNLLFGGGTKLTVL
B2: Bispecific 1 (bispecific antibody)
heavy 1: not shown
light 1: EIVLTQSPGTLSLSPGERATLSCRASQSVRRNYFAWYQQKRGQAPRLLIYDASTRATGIPDRFSGSGSGTDFTLTISRLEPEDFAVYYCQQYDSSPPMYIFGQGTKLEIKSSASTKGPSVFPLAPSSKSTSGGTAALGCLVKDYFPEPVTVSWNSGALTSGVHTFPAVLQSSGLYSLSSVVTVPSSSLGTQTYICNVNHKPSNTKVDKKVEPKSC
heavy 2: not shown
light 2: QSALTQPPSASGSPGQSVTISCSGTSSDVGGYNFVSWYQHHPGKAPKILIYEVTKRPSGVPDRFSGSKSGNTASLTVSGLQAEDEADYYCSSYGGTNNLLFGGGTKLTVLGQPKAAPSVTLFPPSSEELQANKATLVCLISDFYPGAVTVAWKADSSPVKAGVETTTPSKQSNNKYAASSYLSLTPEQWKSHRSYSCQVTHEGSTVEKTVAPTECS
B3: Parental mAb 1 (antibody, V domains shown)
VH: QEQLVQSGAEVKKPGASVKVSCKSSGFTFSYFYLHWVRQAPGQGLEWMGIINPRGDGTRYAQKFQGRVTMTRDASTGTLYMELRSLRSEDTAVYYCARGADHGAFDIWGQGTMVTVSS
VL: EIVLTQSPGTLSLSPGERATLSCRASQSVRRNYFAWYQQKRGQAPRLLIYDASTRATGIPDRFSGSGSGTDFTLTISRLEPEDFAVYYCQQYDSSPPMYIFGQGTKLEIK
notes: also called antibody according to the invention; first parental antibody

Legend:
Assay in all cases: cell-based or functional assay
[1] = molecular target: SARS-CoV-2 Delta Spike antigen (SARS-CoV-2 Delta)
[2] = molecular target: SARS-CoV-2 Omicron XBB.1.1 spike (SARS-CoV-2 Omicron XBB.1.1)
[3] = molecular target: T1, SARS-CoV-2 Omicron BA.4/5 spike (SARS-CoV-2 Omicron BA.4/5)
[4] = molecular target: SARS-CoV-2 Delta Spike antigen (SARS-CoV-2 Delta); remark: listed apart in the source
[5] = molecular target: T1, SARS-CoV-2 Omicron BA.4/5 spike; remark: listed apart in the source
[6] = molecular target: T1, SARS-CoV-2 Omicron BA.4/5 spike; remark: listed apart in the source

Binder	Pseudovirion neutralization IC50 [1] [µg/mL]	Pseudovirion neutralization IC50 [2] [µg/mL]	Pseudovirion neutralization IC50 [3] [µg/mL]	Live virus neutralization IC50 [4] [µg/mL]	Live virus neutralization IC50 [5] [µg/mL]	Pseudovirion neutralization IC50 [6] [µg/mL]
B1	0.488	20.6	7.56	16.1	4.62	
B2	0.307	11.9	5.14	14.2	4.85	
B3		4.85	4.13		2.92	4.13
